{"source": "patent US20210179724A1", "about": "(TWIST BIOSCIENCE, published 2021)", "binders": {"B1": {"name": "A2A - 53 (antibody, V domains shown)", "VH": "EVQLVESGGGLVKPGGSLRLSCAASGFNIIDDYMHWVRQAPGKGLEWVGMITDTGEPTDADSVKGRFTISRDNSKNTLYLQMNSLRAEDTAVYYCVYDYIYAMDYWGQGTLVTVSS", "VL": "DIQMTQSPSSLSASVGDRVTITCKASQNMGSNVAWYQQKPGKAPKLLIYSASHRSSGVPSRFSGSGSGTDFTLTISSLQPEDFATYYCQQWNYPRITFGQGTKLEIK"}, "B2": {"name": "A2A-9 (antibody, V domains shown)", "VH": "EVQLQQSGPGLVKPSQSLSLTCSVTGYSITSGYYWNWIRQFPGKKLEWMGYIRYDGSNNYNPSLKNRISITRDTSKNQFFLKLNSVTTDDTATYYCARVHHYYGSSYFDYWGQGTTLTVSS", "VL": "DIVMTQSQKFMSTSVGDRVSATCKASQNVGSSVAWFQQKPGQSPKALIYSTSYRYSGVPDRFTGSGSGTDFTLTISNVQSEDLAEYFCQQYNSYPLTFGAGTKLEIK", "notes": "Tested as IgG; also called A2AR variant A2A-9"}, "B3": {"name": "A2A - 77 (antibody, V domains shown)", "VH": "QVQLQESGPGLVKPSGTLSLTCAVSGGSISSSNWWSWVRQPPGKGLEWIGEIYHSGNTNYNPSLKSRVTMSVDKSKNQFSLNLHSVTAADTAVYYCAREVVSGMIGTIFDYWGQGTLVTVSS", "VL": "ELVMTQSPSSLSASVGDRVTITCRASQRISSYLNWYQQKPGKAPKLLIYAASSLQSRVPSRFSGSGSGTDFTLTISSLQPEDFATYYCQQSYSTPLTFGGGTKLETK", "notes": "tested as IgG"}, "B4": {"name": "A2A - 81 (antibody, V domains shown)", "VH": "QVQLQESGPGLVKPSGTLSLTCAVSGGSISSSNWWSWVRQPPGKGLEWIGEIYHSGSTNYNPSLKSRVTISVDKSKNQFSLKLGSVTAADTAVYYCAREVVSGLYGTIFDYWGQGTLVTVSS", "VL": "not shown", "notes": "tested as IgG"}, "B5": {"name": "A2A-18 (antibody, V domains shown)", "VH": "EVQLVESGGGLVKPGGSLRLSCAASGFSFSGYAMSWVRQAPGKGLEWVSVISGSGGSTNYADSVKGRFTISRDNSKNTLYLQMNSLRAEDTAVYYCAAARGYPRWRLGRRYDYWGQGTLVTVSS", "VL": "DIQMTQSPSSLSASVGDRVTITCRASQSVTTYLNWYQQKPGKAPKLLIYSASSLQSGVPSRFSGSGSGTDFTLTISSLQPEDFATYYCQQTYATPWTFGGGTKVEIK", "notes": "tested as IgG"}}, "key": {"adenosine A2A receptor [1]": {"biological_target": "T1, adenosine A2A receptor (Homo sapiens (Human), UniProt P29274 1-412)", "T1 sequence (P29274 whole entry)": "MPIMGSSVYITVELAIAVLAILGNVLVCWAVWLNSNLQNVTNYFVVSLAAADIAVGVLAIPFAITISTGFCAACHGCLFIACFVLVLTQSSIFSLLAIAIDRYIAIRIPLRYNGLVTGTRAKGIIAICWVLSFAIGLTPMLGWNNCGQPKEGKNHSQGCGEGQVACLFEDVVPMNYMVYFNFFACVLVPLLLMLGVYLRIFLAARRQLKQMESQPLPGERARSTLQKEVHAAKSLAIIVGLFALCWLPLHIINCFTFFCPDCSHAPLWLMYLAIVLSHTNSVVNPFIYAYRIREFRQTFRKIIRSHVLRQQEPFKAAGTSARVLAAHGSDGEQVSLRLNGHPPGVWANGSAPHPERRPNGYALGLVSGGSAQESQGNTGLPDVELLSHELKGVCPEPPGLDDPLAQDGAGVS", "test": "cell-based or functional assay"}, "adenosine A2A receptor [2]": {"biological_target": "T1, adenosine A2A receptor", "test": "flow cytometry titration 0.05-100 nM IgG; grey series read as HEK293-A2a cells", "protocol": "Flow cytometry data showing binding to HEK293-A2a cells using immunoglobulins from variant libraries were generated using 100 nM IgG and compared to detected binding in parent cells. […] Selected variants were assessed for binding at concentrations titrated from 100 nM. […] Binding curves are plotted with IgG concentration vs. MFI (mean fluorescence intensity). […] Selected variants were assessed for binding at concentrations titrated from 100 nM. […] Binding curves are plotted with IgG concentration vs. MFI (mean fluorescence intensity)."}, "adenosine A2A receptor [3]": {"biological_target": "T1, adenosine A2A receptor", "test": "flow cytometry cell-binding titration 0.05-100 nM IgG"}, "adenosine A2A receptor [4]": {"biological_target": "T1, adenosine A2A receptor", "test": "flow cytometry cell-binding titration 0.05-100 nM IgG; panel title 'Immune Library to A2a protein + ZM241385' (panning group)"}, "adenosine A2A receptor [5]": {"biological_target": "T1, adenosine A2A receptor", "test": "flow cytometry cell-binding titration 0.05-100 nM IgG; panel title 'Synthetic Library to A2a protein' (panning group)"}}, "data": [{"binder": "B1", "values": [{"measurement": "IC50 (read off the curve), A2A antagonistic cAMP assay, RFU ratio 665/615 nm, 0.5 uM NECA", "setting": "adenosine A2A receptor [1]", "value": "~3", "unit": "nM"}]}, {"binder": "B2", "values": [{"measurement": "EC50 (read off the curve)", "setting": "adenosine A2A receptor [2]", "value": "~4", "unit": "nM"}]}, {"binder": "B3", "values": [{"measurement": "EC50 (read off the curve)", "setting": "adenosine A2A receptor [3]", "value": "~6", "unit": "nM"}]}, {"binder": "B4", "values": [{"measurement": "binding result", "setting": "adenosine A2A receptor [4]", "value": "binds"}]}, {"binder": "B5", "values": [{"measurement": "binding result", "setting": "adenosine A2A receptor [5]", "value": "binds"}]}]}
